The RNAGym collection of RNA variant scans (doi:10.1073/pnas.2313332121)

B1: TPR t1 (parent)
chain: GACCAAUCUGCCCUCAGAGCUCGAGAACAUCUUCGGAUGCAGAGGAGGCAGGCUUCGGUGGCGCGAUAGCGCCAACGUCCUCAACCUCCAAUGCAUCCCACCACAUGAUGAUGCCUGAAGAGCCUUGGUUUUUUG

Variants of: B1
Experiment: polymerase ribozyme fitness, log enrichment relative to wild type (log ratio); higher = more active; in vitro selection for triplet polymerase activity
Procedure, shortened: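 Each subunit of a heterodimeric triplet polymerase ribozyme was represented by a PCR-built, transcribed mutant library that underwent triplicate single-round in vitro selection with frozen incubation at −7 °C. Extended constructs were recovered by gel excision, streptavidin-bead capture and RT-PCR, and Illumina sequencing of input and output libraries kept genotypes with ≥10 input reads and ≥1 read per output. Fitness is the logarithm of genotype enrichment relative to wild-type enrichment, from inverse-variance-weighted replicate averages, with a logarithm base of 2.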

Variant | polymerase ribozyme fitness (log ratio)
GACCAAUCUGCCCUCCGAGCUCGAGAACAUCUUCGGAUGCAGAGGAGGCAGGCUUCUGUGGCGCGAUAGCUCCAACGUCCUCAACCACCAAUGCAUCCCACCACAUGAUGAUGCCUGAAGAGCCUUCGUUUUUUG | -6.26
GACCAAUCUGCCCUCCGAGCUCGAGAACAUCUUCGGAUGCAGAGGAGGCAGGGUUCGGUGGCUCGAUAGCGCCAACGUCCUCAACCUCCAAUGCAUCCCACCACAUGAUGAUGCCUGAAGAGCCUUGGUUUCUUG | -4
GACCAAUCUGCCCUCCGAGCUCGAGAACAUCUUCGGAUGCAGAUGAGGCAGGCUUCGGUGGCGCGAUAGCGCCAACGCCCUCAACCUCCAAUGCAUCCCACCACAUGAUGAUGCCUGAAGAGCCUUGGUUUUUUG | -4.35
GACCAAUCUGCCCUCCGAGCUCGAGAACAUCUUCGGAUGCAGAGGAUGCAGGCUUCGGUGGCGCGAUAGCGCCAACGUCCUCAACCUCCAAUGCAUCCCACCACAUGAUGAUGCCUGAUGAGCCUUGGUUUUUUG | -5.65
GACCAAUCUGCCCUCCGAGCUCGAGAACAUCUUCGGAUGCAGAUGAGGCAGGCUUCGGUGGCGCGAUAGCGCCAACGUCCUCAACCUCCAAUGCAUCCCACCACAUGAUGAUGCCUGAAGAGCCGUGGUUUUUUG | -4.42
GACCAAUCUGCCCUCCGAGCUCGAGAACAUCUUCGGAUGCAGAGGAGGCGGGCUUCGGUGGCGCGAUAGCGCCAACGUCCUCAACCUCCAAUGCAUCCCACCACAUGAUGAUGCCUGAAGAGCCUUGGUUUUUUG | -2.32
GACCAAUCUGCCCUCCGAGCUCCAGAACAUCUUCGGAUGCAGAGGAGGCAGGCUUCGGUGCCACGAUAGCGCCAACGUCCUCAACCACCAAUGCAUCCCACCACGUGAUCAUGCCUGAAGAGCCUUGGUUUUUUG | -7.62
GACCAAUCUGCCCUCCGAGCUCGAGAACAUCUUCGGAUGCAGACGAGGUAGGCUUCGGUGGCGCGAUAGCGCCAACGUCCUCAACCUCCAAUGCAUCCCACCACAUGAUGAUGCCUGAAGAGCCUUGGUUUUUUG | -3.94
GACCAAUCUGCCCUCCGAGGUCGAGAACAUCUUCGGAUGCAGAGGAGGCAGGCUUCGGGGGCGCGAUAGCGCCAACGUCCUCAACCUCCAAUGCAUCCCACCACAAGAUGAUACCUGAAGAGCCUUGGUUUUUUG | -5.4
GACCAAUCUGCCCUUAGAGCUCGAGAACAUCUUCGGAUGCAGAGGAGGCAGGCUUCGGUGGCGCGAUAGCGCCAACGCCCUCCACCUCCAAUGCAUACCAACACAUGAAGAUGCCUGAAGAGCCUUGGUUUUUUG | -5.99
GACCAAUCUGCCCUCCGAGCUCGAGAACAUCUUCGGAUGCAGAGGAGGCAGGCUUAGGUGGCGCGAUAGCGCCAACGUCCUCAACCUCCAAUGCAUCCCACCACAUGAUGAUGCCUGAAGAGCCUUGGUUUUUUG | -2.44
GACCAAUCUGCCCUCCGAGCUCGAGAACAUCUUCGGAUGCAGAGGAGGCAGGCUUGGGUGGCGCGAUAGCGCCAACGUCCUCAACCUCCAAUGCAUCCCACCACAUGAUGAUGCCUGAAGAGCCUUGGUUUUUUG | -2.73
GACCAAUCUGCCCUCCGAGCUCGAGAACAUCUUCGGAUGCAGAGGAGGCAGGCUUUGGUGGCGCGAUAGCGCCAACGUCCUCAACCUCCAAUGCAUCCCACCACAUGAUGAUGCCUGAAGAGCCUUGGUUUUUUG | -2
GACCAAUCUGCCCUCCGAGCUCGAGAACAUCUUCGGAUGCAGAGGUGGCAGGCUUCGGUGGCGCGAUAGCGCCAACGUCCUCAACCUCCAAUGCAUCCCACCACAUGAUGAUGCCUAAAGAGCCUUGGUUUUGUG | -6.47
GACCAAUCUGCCCUCCGAGCUCGAGAACAUCUUCGGAUGCAGAGGAGGCAGCCUUCGGUGGUGCGAUAGCGCCAACGUCCUCAACCUCCAAUGCAUCCCACCACAUGAUGAUGCCUGAAGAGCCUUGGUUUUUUG | -3.32
GACCAAUCUGCCCUCCGAGCUCGAGAACAUCUUCGGAUGGAGAGGAGGCAGGCUUAGGUGGCGCGAUAGCGCCAACGUCCUCAACCUCCAAUGCAUCCCACCACAUGAUGAUGCCUGAAGAGCCUUGGUUUUUUG | -3.75
GACCAAUCUGCCCUCCGAGCUCGAGAACAUCUUCGGAUGCAGAGGAGGAAGGCUUCGGUGGCGCGAUAGCGCCAACGUCCUCAACCUCCAAUGAAUCCCACCACAUGAUGAUGCCUGAAGAGCAUUGGUUUUUUG | -0.594
GACCAAUCUGCCCUCCGAGCUCGAGAACAUCUUCGGAUGCAGAGGAGGCAGACUUCGGUGGCGCGAUAGCGCCAACGUCCUCAACCUCCAAUGCAUCCCACCACAUGAUGAUGCCUGAGGAGCCUUGGUUUUUUG | 0.273
GACCAAUCUGCCCUCCGAGCUCGAGAACAUCUUCGGAUGCAGAGGAGGCAGGCUUUGGUGGCGCGAUAUCGCCAACGUCCUCAACCUCCAAUGCAUCCCACCACAUGAUGAUGCCUGAAAAGCCUUGGUUUUUUG | -3.38
GACCAAUCUGCCCUCCGAGCUCGAGAACAUCUUCGGAUGCAGAGGAGGCAGGCUUCGGUGGCGCGAUAGCGCCAACGUCCUCAACCUCCAAUGCAUCCCACCACAUGAUGAUGCCUGAAGAGCAUUGGUUUUUUG | 0.87
GACCAAUCUGCCCUCCGAGCUCGAGAACAUCUUCGGAUGCAGAGGAGGCAGGCUUCGGUGGGGCGAUAGCGCCGACGUCCUCAACCUCCAAUGCAUCCCACCACAUGAUGAUGUCUGAAGAGCCUUGGUUUUUUG | -5.78
